This is an account of results in PMC5033702.

In series [1] the target is DDX5-K144N (MBP-DDX5-GST) (UniProt P17844 1-614, K144N). Nature of the series: fluorescence anisotropy. In general terms: Fluorescence polarisation rises when a labelled molecule tumbles more slowly, as on binding a larger partner.
A further series concerns the target DDX5 WT (MBP-DDX5-GST) (UniProt P17844 1-614). Nature of the series: fluorescence anisotropy.

DDX5 WT (MBP-DDX5-GST), sequence (P17844 whole entry): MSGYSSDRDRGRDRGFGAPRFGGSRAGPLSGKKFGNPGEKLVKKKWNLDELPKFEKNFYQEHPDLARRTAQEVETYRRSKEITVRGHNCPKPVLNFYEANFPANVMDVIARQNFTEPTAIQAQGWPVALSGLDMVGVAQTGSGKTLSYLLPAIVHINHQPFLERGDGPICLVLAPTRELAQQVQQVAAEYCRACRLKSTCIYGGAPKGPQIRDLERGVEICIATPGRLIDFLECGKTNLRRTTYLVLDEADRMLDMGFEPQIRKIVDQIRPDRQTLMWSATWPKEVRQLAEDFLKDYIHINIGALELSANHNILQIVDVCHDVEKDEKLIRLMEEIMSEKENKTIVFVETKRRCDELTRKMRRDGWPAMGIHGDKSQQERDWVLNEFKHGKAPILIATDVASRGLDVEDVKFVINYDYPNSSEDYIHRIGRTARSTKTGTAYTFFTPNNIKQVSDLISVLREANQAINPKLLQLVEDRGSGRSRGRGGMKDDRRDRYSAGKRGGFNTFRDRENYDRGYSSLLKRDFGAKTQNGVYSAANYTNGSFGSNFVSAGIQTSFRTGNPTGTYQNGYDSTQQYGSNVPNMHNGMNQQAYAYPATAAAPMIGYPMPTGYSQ
DDX5-K144N (MBP-DDX5-GST), sequence (P17844 whole entry K144N): as the sequence (P17844 whole entry) above, with K144N counted along it

In the case of AGCACCGUAAAGACGC (ssRNA) [6-FAM ssRNA 16-mer], the binding signal in series [1] is ~4 fold reduced affinity vs WT (nearly 4-fold). Moreover, the binding result in the series with DDX5 WT (MBP-DDX5-GST) is on record as “binds”.
